The source of these data is patent US20230067757A1 (NOVAROCK BIOTHERAPEUTICS, published 2023).

Read-outs that look alike come from different tables or passages of the source.

Experiment [1] has as its target human claudin 18 isoform 2 (claudin 18.2) (human). Nature of the experiment: cell-based or functional assay.
The target is the same in experiment [2]. Kind of experiment: cell-based or functional assay. This is another data set of the same source.
Experiment [3] addresses T1, human claudin 18 isoform 2 (claudin 18.2) (human).
T1 construct: Recombinant on transfected CHO cells (CHO-CLDN18.2) or endogenous on tumor cell lines PATU8988S, NUGC-4, KATOIII; the cell line is named under assay; also called CLDN18.2
Kind of experiment: immunofluorescence imaging, CHO-CLDN18.2 cells, serial dilution. The method, then: (§1) The specific cellular binding affinity of anti-Claudin18.2 antibodies was tested on CHO-CLDN18.2 (transfected CHO cell expressing recombinant human CLDN18.2) and CHO-CLDN18.1 (transfected CHO cell expressing recombinant human CLDN18.1) cells. The cells were plated in complete media containing F12 with 10% FBS, then incubated overnight at 37° C., anti-Claudin18.2 antibodies were serial diluted and added to the assay plates, incubated at 4° C. for 2 hours, followed by fixing cells and further staining the cells for 30 minutes with Alexa Fluor® 488 Goat Anti-Human IgG (H+L) secondary antibody, invitrogen Cat #A-11013 for detection. The binding was assessed by imaging the cells and quantifying the fluorescence intensity using a Biotek Cytation.

In experiment [4] the target is T2, human claudin 18 isoform 1 (claudin 18.1) (human, UniProt P56856 1-261).
T2 construct: Recombinant on transfected CHO cells (CHO-CLDN18.1); also called CLDN18.1
Nature of the experiment: immunofluorescence imaging on CHO cells expressing human CLDN18.1, antibody at 10 µg/ml. The method, then:
as §1

In experiment [5] the target is T1, human claudin 18 isoform 2 (claudin …). Kind of experiment: cell-based or functional assay. The source holds these as a separate data set.
Experiment [6] shares this target. Nature of the experiment: imaging, PATU8988S cells (endogenous CLDN18.2); +++ = EC50 between 2 nM and 20 nM.
The target is the same in experiment [7]. Nature of the experiment: cell-based or functional assay. This is another data set of the same source.

T2 sequence (P56856 whole entry, canonical isoform): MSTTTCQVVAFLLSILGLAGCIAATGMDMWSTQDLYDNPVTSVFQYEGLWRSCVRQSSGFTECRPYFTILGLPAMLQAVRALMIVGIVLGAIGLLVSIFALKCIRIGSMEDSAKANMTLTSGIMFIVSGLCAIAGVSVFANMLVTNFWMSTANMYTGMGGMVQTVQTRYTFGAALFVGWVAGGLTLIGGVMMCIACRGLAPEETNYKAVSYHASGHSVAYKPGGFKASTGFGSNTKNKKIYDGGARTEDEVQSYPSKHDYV

B1: Hu-14 (antibody, V domains shown)
VH: EVQLLESGGGLVQPGGSLRLSCAASGITFSSYAMSWVRQVPGKGLEWVSVISGSGGSTYYADSVKGRFTISRDNSKNTLYLQMNSLRAEDTAVYYCAKDRGYDILTTYYDYFYGMDVWGQPEFQHTGG
VL: DIQMTQSPSSLSASVGDRVIITCRASQGIRNDLGWYQQKPGKAPKRLIYAASSLQSGVPSRFSGSGSGTEFTLTISSLQPEDLASYYCLQHNSYPYTFGQGTKLEIK
B1: the “endocytosis derived cell toxicity EC50, CHO-18.2 cells (anti-IgG Fc-MMAF co-internalization)” value (“endocytosis derived cell toxicity EC50” below) in experiment [1] worked out at 1.51 nM. In experiment [2], the “ADCC EC50, CHO-18.2 target cells (mouse FcγRIV reporter bioluminescence)” value (from here on “ADCC EC50, CHO-18.2 target cells”) turned out to be 1.51 nM. A half-maximal response in experiment [3] (EC50) required 19 nM.

B2: Hu-16 (antibody, V domains shown)
VH: EVQLLESGGGVVQPGGSLRLSCAASGLIFSSYAMSWVRQAPGKGLEWVSVIGGSGSNTFYADSVKGRFTISRDNSKNTLFLQMNSLRAEDTAVYYCAKDRGYDILTGYYNYYYGMDVWGQGITVTVSS
VL: DIQMTQSPSSLSASVGDRVTITCRASQGIRNDLGWYQQKPGKAPKRLIYAASSLQSGVPSRFSGSGSGTEFTLTISSLQPEDFATYYCLQHNSYPYTFGQGTKLEIK
Take B2: the “endocytosis derived cell toxicity EC50” value in experiment [1] was found to be 3.09 nM. In addition, in experiment [2], the “ADCC EC50, CHO-18.2 target cells” value is 3.09 nM. Further, the binding result in experiment [4] is reported as “no binding (tested: 10 µg/ml)”. The molecule also had an EC50 in experiment [3] of 12 nM.

B3: Hu-5 (antibody, V domains shown)
VH: QVQLVQSGAEVKKPGASVKVSCEASGYTFTSSYMHWVRQAPGQGLEWMGIINPSGGRTNYAQKFQGRVTMTRDTSTSTVYMELSSLRSEDTAVYYCARDHYDIFTTYYPRGMDVWGQGTTVTVSS
VL: DIQMTQSPSSLSASVGDRVTITCRASQGIRNDLGWYQQKPGKAPKRLIYAASSLQSGVPSRFSGSGSGTEFTLTISSLQPEDFTTYYCLQHNSFPFTFGQGTELEIR
In the case of B3, in experiment [1], the “endocytosis derived cell toxicity EC50” value was 13.4 nM. Also, in experiment [2], the “ADCC EC50, CHO-18.2 target cells” value stood at 7.09 nM. Besides, in experiment [4], the binding result was “no binding (tested: 10 µg/ml)”. The midpoint of the response in experiment [3], the EC50, lay at 4.5 nM.

B4: NBL-014G (antibody, human IgG1, kappa, V domains shown)
VH: EVQLLESGGGLVQPGGSLRLSCAASGFTFSSFAMTWVRQAPGKGLEWVSSLSGSGRSTYYAASMKGRFTISRDNSKNTLYLQMNSLRAEDTAIYYCAKSLSYYHYYFDYWGQGTLVTVTS
VL: DIQLTQSPSFLSASVGDRVPITCRASQGISNFLAWYQQKPGKAPELLIHSASTLQSGVPSRFSGSGSGTEFTLTISNLQPQDFATYYCQQVNSYPLTFGGGTKVEIKR
modifications: low, or no IgG core fucose (non- or afucosylated)
For B4, in experiment [5], the “ADCC EC50, CHO-claudin18.2 cells (human FcγRIIIa reporter bioluminescence)” value amounted to 0.02 nM; the “ADCC EC50, NUGC-4 cells (human FcγRIIIa reporter bioluminescence)” value was 0.06 nM; the “ADCC EC50, PATU8988S cells (human FcγRIIIa reporter bioluminescence)” value turned out to be 0.04 nM; the “CDC EC50, CHO-claudin18.2 cells (human serum, flow cytometry)” value was found to be 0.3 nM. In experiment [5], the “fold improvement of ADCC EC50 over parental NBL-014, CHO-claudin18.2 cells (human FcγRIIIa reporter bioluminescence)” value turned out to be 35 fold; the “fold upshift of maximum ADCC effect over parental NBL-014, NUGC-4 cells (human FcγRIIIa reporter bioluminescence)” value is approximately 3 fold; the “fold upshift of maximum ADCC effect over parental NBL-014, PATU8988S cells (human FcγRIIIa reporter bioluminescence)” value was approximately 33 fold.

B5: NBL-014 (antibody, human IgG1, kappa, V domains shown)
VH: EVQLLESGGGLVQPGGSLRLSCAASGFTFSSFAMTWVRQAPGKGLEWVSSLSGSGRSTYYAASMKGRFTISRDNSKNTLYLQMNSLRAEDTAIYYCAKSLSYYHYYFDYWGQGTLVTVTS
VL: DIQLTQSPSFLSASVGDRVPITCRASQGISNFLAWYQQKPGKAPELLIHSASTLQSGVPSRFSGSGSGTEFTLTISNLQPQDFATYYCQQVNSYPLTFGGGTKVEIKR
For the molecule B5, in experiment [5], the “ADCC EC50, CHO-claudin18.2 cells (human FcγRIIIa reporter bioluminescence)” value amounted to 0.73 nM; the “ADCC EC50, NUGC-4 cells (human FcγRIIIa reporter bioluminescence)” value is 0.4 nM; the “ADCC EC50, PATU8988S cells (human FcγRIIIa reporter bioluminescence)” value worked out at 0.12 nM; the “CDC EC50, CHO-claudin18.2 cells (human serum, flow cytometry)” value came out at 0.22 nM. Moreover, the “fold improvement of CDC EC50 over PC1 (in-house iMAb36), CHO-claudin18.2 cells (human serum, flow cytometry)” value in experiment [5] is approximately 10 fold.

B6: Ms5 (antibody, V domains shown)
VH: QVQLQQPGAELVKPGASVKLSCKASGYTFTRYLMHWVKQRPGQGLEWIGEINPSNGRTNYNEKFKSKAALTVDKSSSTAYMQLSSLTSEDSAVYYCARLAYGYGNAVDYWGQGTSVTVSS
VL: DIVMTQSPSSLSVSAGEKVTMSCKSSQSLLNSGNQKNYLAWYQQKPGQPPKLLIYGASTRESGVPDRFTGSGSGTDFTLTISSVQAEDLAVYYCQNDHSYPLTFGAGTKLELK
As for B6, the EC50 is 2 to 20 nM in experiment [6] and 1.7 nM in experiment [3]. Moreover, the binding result in experiment [4] is recorded as “no binding (tested: 10 µg/ml)”. Also, the “endocytosis derived cell toxicity EC50” value in experiment [7] turned out to be 1.43 nM.

B7: Ms10 (antibody, V domains shown)
VH: EVQLQQSGPELEKPGASVKISCKASGYSFTGYKMNWVKQSNGKSLEWIGHIDPYYGGPRYNKKFMGKATLTVDRSSSTAYMQLKSLTSEDSAVYYCARLDYGNSFAYWGQGTLVTVSA
VL: DIVMTQSPSSLSVSAGEKVTMSCKSSQSLLNSGNQKNYLAWYQQKPGQPPKLLIYGASTRESGVPDRFTGSGSGTDFTLTISSVQAEDLAVYYCQNDHSYPFTFGGGTKLEIK
For the molecule B7, the results for the EC50 in experiment [6] and in experiment [3] were 2 to 20 nM and 1.3 nM, respectively. Moreover, in experiment [4], the binding result is recorded as “no binding (tested: 10 µg/ml)”. In experiment [7], the “endocytosis derived cell toxicity EC50” value amounted to 0.96 nM.

B8: Ms6 (antibody, V domains shown)
VH: QVQLQQSGAELAKPGASVKMSCRASGYTFTSYLMHWIKQRPGQALEWIGYINPTTDYTEYNQKFKGKATLTADKSSSTAYMQLSSLTSEDSAVYYCGRLGYYKRNAMDHWGQGTSVTVSS
VL: DIVMTQSPSSLSVSAGEKVTMSCKSSQSLLNSGNQKNYLAWYQQKPGQPPKLLIYGASTRESGVPDRFTGSGSGTDFTLTISSVQAEDLAVYYCQNDHFYPLTFGAGTKLELK
Turning to B8, the EC50 in experiment [6] was 2 to 20 nM; in experiment [3], 1.2 nM. In addition, the binding result in experiment [4] was “no binding (tested: 10 µg/ml)”. For the same molecule, the “endocytosis derived cell toxicity EC50” value in experiment [7] was 1.26 nM.

B9: Ms1 (antibody, V domains shown)
VH: EIQLQQSGPELVKPGASVKVSCKASGYAYTRYNMYWVKQSHGKSLEWIGYIDPYNGGTNYNQKFKGKATLTVDKSSSTAYMHLNSLTSEDSAVYYCARGGYYGNAMDYWGQGTSVTVSS
VL: DIVMTQSPSSLTVTAGEKVTMSCKSSQSLLNSGNQKNYLTWYQQKPGQPPKLLIYWASTRESGVPDRFTGSGSGTDFTLTISSVQAEDLSIYYCQSNYIYPFTFGAGTTLELQ
Turning to B9, the EC50 in experiment [6] was 2 to 20 nM; in experiment [3] it was 1.2 nM. The binding result in experiment [4] is “no binding (tested: 10 µg/ml)”. For the same molecule, in experiment [7], the “endocytosis derived cell toxicity EC50” value was determined as 1.09 nM.

B10: Ms7 (antibody, V domains shown)
VH: EVKLVESGGDLVQPGGSLRLSCTTPGFTFSDFYMEWVRQPPGKRLEWIAASRNKANDYTTENSASVKGRFIVSRDTSQSILYLQMNALRAEDTAIYYCARDACPWDWFAYWGQGTLVTVSA
VL: DIVMTQSPSSLTVTAGEKVTMSCKSSQSLLNSGNQKNYLTWYQQKPGQPPKLLIYWASTRESGVPDRFTGSGSGTDFTLTISSVQAEDLAVYYCQNDYSYPFTFGSGTKLEIK
Consider B10, for which the values for the concentration giving a half-maximal response (EC50) in experiment [6] and in experiment [3] were 2 to 20 nM and 1.4 nM, respectively. Further, the binding result in experiment [4] is recorded as “no binding (tested: 10 µg/ml)”. The “endocytosis derived cell toxicity EC50” value in experiment [7] worked out at 1.12 nM.

B11: Ms3 (antibody, V domains shown)
VH: EVMLVESGGGIVKPGGSLKLSCAASGFTLSSYTMSWVRQTPERRLEWVATIIIGGSYTYYPDSVKGRFTISRDNAKNTLYLQMSSLRSEDTAMYYCARQGYGNSFPYWGQGTLVTVSA
VL: DIVMTQSPSSLTVTAGEKVTMSCKSSQSLLNSGNQKNYLTWYQQKPGQPPKLLIYWASTRESGVPDRFTGSGSGTDFTLTISSVQAEDLAVYYCQNDYSYPFTFGSGTKLEIK
B11: the EC50 in experiment [6] is 2 to 20 nM; in experiment [3], 1.8 nM. Also, the binding result in experiment [4] was “no binding (tested: 10 µg/ml)”. Besides, the “endocytosis derived cell toxicity EC50” value in experiment [7] turned out to be 1.14 nM.

B12: Ms8 (antibody, V domains shown)
VH: EIQLQQSGPELVKPGASVKVSCKASDYAFTRYNMYWVKQSHGKSLEWIGYIDPYNGGTNYNQKFKGKATLTVDKSSSTAYMHLNSLTSEDSAVYYCARGGYYGNAMDYWGQGTSVTVSS
VL: DIVMTQSPSSLTVTAGEKVTMSCKSSQSLLNSGNQKNYLTWYQQKPGQPPQLLIYWASTRESGVPDRFTGSGSGTDFTLTISSVQAEDLSIYYCQSNYIYPFTFGAGTTLELQ
Turning to B12, the EC50 is 2 to 20 nM in experiment [6] and 1.5 nM in experiment [3]. For the same molecule, in experiment [4], the binding result was “no binding (tested: 10 µg/ml)”. In addition, the “endocytosis derived cell toxicity EC50” value in experiment [7] came to 1.08 nM.

B13: Ms12 (antibody, V domains shown)
VH: EIQLQQSGPELVKPGASVKVSCKASGYAFASYKMYWVKQSHGKSLEWIGYIDPYNGVTSYNQKFRGKATLTVDKSSSTAYMHLNSLTSEDSAVYYCARGAYYGNSFDYWGQGTTLTVSS
VL: DIVMTQSPSSLTVTAGEKVTMSCKSSQSLLNSGNQKNYLTWYQQQPGQPPKLLIYWASTRESGVPDRFTGSGSGTDFTLTISSVQAVDLAVYYCQSAYSFPYTFGGGTKLEVK
Turning to B13, the concentration giving a half-maximal response (EC50) is 2 to 20 nM in experiment [6] and 2 nM in experiment [3]. For the same molecule, the binding result in experiment [4] is listed as “no binding (tested: 10 µg/ml)”. Further, the “endocytosis derived cell toxicity EC50” value in experiment [7] is 1.07 nM.

The term EC50 denotes the concentration needed to bring the measured effect to its halfway point. Read a low EC50 as greater potency.
